Experimental data: publication PMC4204775 (Human Molecular Genetics, 2014)
Values belong to the molecule of their own block, whether it stands above or below them.

Experiments:
[1] = target: T1, AGT-Ma (S81L-Ma homodimer) (Homo sapiens, UniProt P21549, S81L); test: CD signal change at […] nm on PLP titration of apoenzyme; format: binding
T1 sequence (P21549 1-392 S81L): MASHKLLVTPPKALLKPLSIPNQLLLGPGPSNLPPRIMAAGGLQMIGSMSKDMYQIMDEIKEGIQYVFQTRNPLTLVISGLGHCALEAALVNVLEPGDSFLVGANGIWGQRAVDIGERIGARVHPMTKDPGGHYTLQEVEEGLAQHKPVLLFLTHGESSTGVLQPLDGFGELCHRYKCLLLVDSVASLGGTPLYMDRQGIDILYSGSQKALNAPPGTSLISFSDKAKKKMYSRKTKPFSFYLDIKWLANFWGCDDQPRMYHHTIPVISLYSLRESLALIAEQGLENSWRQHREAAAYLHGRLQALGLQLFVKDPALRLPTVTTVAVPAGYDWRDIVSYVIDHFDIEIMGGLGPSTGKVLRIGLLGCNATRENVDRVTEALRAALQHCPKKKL

[2] = substrate: O=CC(=O)O; test: pyruvate formation, lactate dehydrogenase-coupled spectrophotometric assay; format: biochemical, Homo sapiens; details: saturating L-alanine, 200 μM PLP, 100 mM potassium phosphate, 25°C
[3] = substrate: C[C@H](N)C(=O)O; test: as above; format: biochemical, Homo sapiens; details: saturating glyoxylate, 200 μM PLP, 100 mM potassium phosphate, 25°C

Kd [1]: 17 ± 3 µM
Molecule: Cc1ncc(COP(=O)(O)O)c(C=O)c1O [PLP]

B1: AGT-Ma (S81L-Ma homodimer) (Homo sapiens; S81L) (protein)
chain: T1 sequence (P21549 1-392 S81L)
Km [2]: 160 ± 20 µM
kcat [2]: 13.9 ± 0.9 s⁻¹
kcat [3]: 13.9 ± 0.9 s⁻¹
